Laboratory results: paper PMC9976900

Legend:
[1] = target: T1, Unr CSD789 wild type (Drosophila, UniProt B7Z0E2 756-990); assay: ITC
T1 sequence: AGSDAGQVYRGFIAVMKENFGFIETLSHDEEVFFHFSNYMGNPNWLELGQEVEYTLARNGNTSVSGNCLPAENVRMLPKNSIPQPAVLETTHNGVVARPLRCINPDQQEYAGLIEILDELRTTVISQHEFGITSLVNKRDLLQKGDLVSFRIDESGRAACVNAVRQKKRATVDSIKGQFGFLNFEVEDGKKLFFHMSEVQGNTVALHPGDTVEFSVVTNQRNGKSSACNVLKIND

[2] = target: pAbp RRM3 (Drosophila, UniProt P21187 176-263); assay: NMR titration
[3] = target: T2, Unr CSD789 Q975A (Drosophila, UniProt B7Z0E2 756-990, Q975A); assay: fluorescence polarization
T2 sequence: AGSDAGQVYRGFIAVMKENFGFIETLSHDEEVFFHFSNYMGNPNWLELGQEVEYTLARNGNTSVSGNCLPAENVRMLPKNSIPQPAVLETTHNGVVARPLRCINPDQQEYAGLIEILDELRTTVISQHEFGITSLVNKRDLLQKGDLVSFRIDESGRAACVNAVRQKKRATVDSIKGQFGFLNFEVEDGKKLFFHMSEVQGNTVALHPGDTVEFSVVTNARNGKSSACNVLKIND

[4] = target: T3, Unr CSD789 Q868A (Drosophila, UniProt B7Z0E2 756-990, Q898A); assay: fluorescence polarization
T3 sequence: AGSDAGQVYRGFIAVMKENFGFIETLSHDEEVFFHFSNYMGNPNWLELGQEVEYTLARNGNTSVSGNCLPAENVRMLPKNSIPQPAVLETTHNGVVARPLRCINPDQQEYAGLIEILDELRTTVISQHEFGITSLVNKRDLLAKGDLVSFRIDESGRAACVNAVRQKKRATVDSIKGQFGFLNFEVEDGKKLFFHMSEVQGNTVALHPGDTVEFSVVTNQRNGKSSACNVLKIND

[5] = target: T1, Unr CSD789 wild type; assay: fluorescence polarization
[6] = target: T4, Unr CSD789 R976A (Drosophila, UniProt B7Z0E2 756-990, R976A); assay: fluorescence polarization
T4 sequence: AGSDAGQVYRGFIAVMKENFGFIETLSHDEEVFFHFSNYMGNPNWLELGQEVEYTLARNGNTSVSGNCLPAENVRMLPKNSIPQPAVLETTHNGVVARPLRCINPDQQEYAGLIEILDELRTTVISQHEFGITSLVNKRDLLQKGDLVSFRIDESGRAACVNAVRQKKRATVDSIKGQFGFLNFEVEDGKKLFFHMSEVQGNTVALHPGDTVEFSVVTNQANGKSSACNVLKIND

[7] = target: T5, Unr CSD789 E786A/R856A/P860A (ERPmut) (Drosophila, UniProt B7Z0E2 756-990, E786A;R856A;P860A); assay: fluorescence polarization
T5 sequence: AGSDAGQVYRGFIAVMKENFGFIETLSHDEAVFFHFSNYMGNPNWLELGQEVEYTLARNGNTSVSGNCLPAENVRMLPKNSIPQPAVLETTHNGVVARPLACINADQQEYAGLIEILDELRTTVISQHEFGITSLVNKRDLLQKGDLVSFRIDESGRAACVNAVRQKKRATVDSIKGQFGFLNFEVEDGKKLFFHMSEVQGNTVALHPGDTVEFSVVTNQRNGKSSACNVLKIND

[8] = target: T6, Unr CSD789 N977A (Drosophila, UniProt B7Z0E2 756-990, N977A); assay: fluorescence polarization
T6 sequence: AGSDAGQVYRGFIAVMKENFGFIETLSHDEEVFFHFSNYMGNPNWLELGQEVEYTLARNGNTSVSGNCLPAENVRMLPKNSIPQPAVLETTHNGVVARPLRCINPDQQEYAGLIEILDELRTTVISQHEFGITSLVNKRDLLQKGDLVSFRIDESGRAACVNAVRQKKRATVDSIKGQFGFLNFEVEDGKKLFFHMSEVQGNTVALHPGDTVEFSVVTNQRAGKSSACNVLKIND

[9] = target: T7, Unr CSD789 K979A (Drosophila, UniProt B7Z0E2 756-990, K979A); assay: fluorescence polarization
T7 sequence: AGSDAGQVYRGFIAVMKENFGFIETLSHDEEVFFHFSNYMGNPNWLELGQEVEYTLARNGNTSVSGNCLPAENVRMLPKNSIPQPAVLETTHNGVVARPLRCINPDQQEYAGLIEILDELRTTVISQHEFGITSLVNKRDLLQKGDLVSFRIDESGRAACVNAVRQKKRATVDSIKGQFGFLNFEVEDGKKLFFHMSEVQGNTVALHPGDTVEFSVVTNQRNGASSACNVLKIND

[10] = target: T8, Unr CSD789 E786A (Drosophila, UniProt B7Z0E2 756-990, E786A); assay: fluorescence polarization
T8 sequence: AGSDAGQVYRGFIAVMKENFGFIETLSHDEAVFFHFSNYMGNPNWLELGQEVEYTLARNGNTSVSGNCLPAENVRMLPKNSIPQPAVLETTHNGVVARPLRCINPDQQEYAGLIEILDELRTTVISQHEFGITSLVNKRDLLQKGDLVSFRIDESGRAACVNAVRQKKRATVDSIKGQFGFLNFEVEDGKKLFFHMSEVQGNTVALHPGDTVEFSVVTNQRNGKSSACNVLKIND

[11] = target: T9, Unr CSD789 R856A (Drosophila, UniProt B7Z0E2 756-990, R856A); assay: fluorescence polarization
T9 sequence: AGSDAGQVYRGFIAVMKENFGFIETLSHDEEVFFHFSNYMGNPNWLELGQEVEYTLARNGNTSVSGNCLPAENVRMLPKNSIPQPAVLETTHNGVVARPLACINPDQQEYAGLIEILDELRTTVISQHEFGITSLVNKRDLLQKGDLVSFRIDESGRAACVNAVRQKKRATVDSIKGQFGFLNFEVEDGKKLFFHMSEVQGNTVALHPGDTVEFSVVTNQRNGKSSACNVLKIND

[12] = target: T10, Unr CSD789 P860A (Drosophila, UniProt B7Z0E2 756-990, P860A); assay: fluorescence polarization
T10 sequence: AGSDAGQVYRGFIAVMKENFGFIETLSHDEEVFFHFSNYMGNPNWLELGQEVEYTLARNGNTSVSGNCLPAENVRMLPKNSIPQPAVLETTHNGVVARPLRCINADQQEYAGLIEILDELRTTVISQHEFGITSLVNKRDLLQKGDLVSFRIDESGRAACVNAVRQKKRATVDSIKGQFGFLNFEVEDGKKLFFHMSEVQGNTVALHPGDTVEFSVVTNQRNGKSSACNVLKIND

[13] = target: T1, Unr CSD789 wild type; assay: NMR titration

Sequence of pAbp RRM3 (P21187 176-263): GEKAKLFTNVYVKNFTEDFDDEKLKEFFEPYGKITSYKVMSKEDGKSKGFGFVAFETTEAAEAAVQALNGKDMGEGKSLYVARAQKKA

With AAAAAAAA (ssRNA) [A8-mer] the Kd [1] was 4.4 ± 2.7 µM and the binding result [2] was “binds”.

AAAAAAAAA (ssRNA) [A9-mer] showed a Kd [1] of 4.3 ± 1.3 µM.

AAAAAAA (ssRNA) [A7-mer] was tested, and the Kd [1] was 17.7 ± 5.2 µM.

AAAAAAAAAAAAAAA (ssRNA) [A15-mer, 3' labelled] showed a Kd [3] of 38.2 ± 8.7 µM, a Kd [4] of 61 ± 12.1 µM and a Kd [5] of 21.1 ± 3.6 µM. For the same binder, the Kd [6] was 161 ± 51.2 µM, the Kd [7] was ~94.7 µM and the Kd [8] was 71.2 ± 12.5 µM. It also gave a Kd [9] of 160 ± 57.6 µM, a Kd [10] of 50.1 ± 6.4 µM and a Kd [11] of 72.4 ± 11 µM. The Kd [12] was 67.2 ± 7.9 µM.

AAAAA (ssRNA) [A5-mer] was tested, and the Kd [13] was 127 ± 16.6 µM and the binding result [2] was “binds”.

With AAAAAAAAAAAAAAA (ssRNA) [A15-mer] the Kd [1] was 4.8 ± 0.8 µM and the Kd [13] was 8 ± 1.5 µM.
